Reference: patent US20030229005
Where “and” joins values, the source holds several entries; their conditions need not be identical. Equal entries are not always repeated.

Columns and labels:
type IV collagen = type IV collagen (UniProt P08572)
[1] = test system: Dab-SYPSGIHLC(Flu)LQR-NH2
[2] = test system: Dabcyl-GPLGMRGC(Fluorescein)-NH2
[3] = test system: Dnp-VC(Me)PKGITSC(Me)VFR-NH2

Sequence of gelatinase B (chain, as listed by the source): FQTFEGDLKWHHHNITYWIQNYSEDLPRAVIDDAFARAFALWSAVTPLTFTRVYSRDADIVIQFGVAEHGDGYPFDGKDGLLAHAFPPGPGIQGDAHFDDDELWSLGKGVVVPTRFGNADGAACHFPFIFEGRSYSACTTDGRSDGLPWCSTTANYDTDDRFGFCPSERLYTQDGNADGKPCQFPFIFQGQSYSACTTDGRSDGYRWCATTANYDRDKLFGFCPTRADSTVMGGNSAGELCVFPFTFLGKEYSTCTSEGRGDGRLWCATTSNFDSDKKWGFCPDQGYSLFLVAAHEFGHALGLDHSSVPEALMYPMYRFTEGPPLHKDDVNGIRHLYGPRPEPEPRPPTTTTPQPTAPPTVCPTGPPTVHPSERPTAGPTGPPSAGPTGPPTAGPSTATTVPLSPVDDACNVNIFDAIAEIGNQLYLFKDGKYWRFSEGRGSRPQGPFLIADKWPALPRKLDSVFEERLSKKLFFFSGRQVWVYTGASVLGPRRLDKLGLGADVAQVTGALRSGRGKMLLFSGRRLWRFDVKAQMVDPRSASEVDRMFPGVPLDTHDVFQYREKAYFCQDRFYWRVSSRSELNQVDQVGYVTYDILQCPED
Sequence of type IV collagen (P08572 26-1712, chain 1 of 2): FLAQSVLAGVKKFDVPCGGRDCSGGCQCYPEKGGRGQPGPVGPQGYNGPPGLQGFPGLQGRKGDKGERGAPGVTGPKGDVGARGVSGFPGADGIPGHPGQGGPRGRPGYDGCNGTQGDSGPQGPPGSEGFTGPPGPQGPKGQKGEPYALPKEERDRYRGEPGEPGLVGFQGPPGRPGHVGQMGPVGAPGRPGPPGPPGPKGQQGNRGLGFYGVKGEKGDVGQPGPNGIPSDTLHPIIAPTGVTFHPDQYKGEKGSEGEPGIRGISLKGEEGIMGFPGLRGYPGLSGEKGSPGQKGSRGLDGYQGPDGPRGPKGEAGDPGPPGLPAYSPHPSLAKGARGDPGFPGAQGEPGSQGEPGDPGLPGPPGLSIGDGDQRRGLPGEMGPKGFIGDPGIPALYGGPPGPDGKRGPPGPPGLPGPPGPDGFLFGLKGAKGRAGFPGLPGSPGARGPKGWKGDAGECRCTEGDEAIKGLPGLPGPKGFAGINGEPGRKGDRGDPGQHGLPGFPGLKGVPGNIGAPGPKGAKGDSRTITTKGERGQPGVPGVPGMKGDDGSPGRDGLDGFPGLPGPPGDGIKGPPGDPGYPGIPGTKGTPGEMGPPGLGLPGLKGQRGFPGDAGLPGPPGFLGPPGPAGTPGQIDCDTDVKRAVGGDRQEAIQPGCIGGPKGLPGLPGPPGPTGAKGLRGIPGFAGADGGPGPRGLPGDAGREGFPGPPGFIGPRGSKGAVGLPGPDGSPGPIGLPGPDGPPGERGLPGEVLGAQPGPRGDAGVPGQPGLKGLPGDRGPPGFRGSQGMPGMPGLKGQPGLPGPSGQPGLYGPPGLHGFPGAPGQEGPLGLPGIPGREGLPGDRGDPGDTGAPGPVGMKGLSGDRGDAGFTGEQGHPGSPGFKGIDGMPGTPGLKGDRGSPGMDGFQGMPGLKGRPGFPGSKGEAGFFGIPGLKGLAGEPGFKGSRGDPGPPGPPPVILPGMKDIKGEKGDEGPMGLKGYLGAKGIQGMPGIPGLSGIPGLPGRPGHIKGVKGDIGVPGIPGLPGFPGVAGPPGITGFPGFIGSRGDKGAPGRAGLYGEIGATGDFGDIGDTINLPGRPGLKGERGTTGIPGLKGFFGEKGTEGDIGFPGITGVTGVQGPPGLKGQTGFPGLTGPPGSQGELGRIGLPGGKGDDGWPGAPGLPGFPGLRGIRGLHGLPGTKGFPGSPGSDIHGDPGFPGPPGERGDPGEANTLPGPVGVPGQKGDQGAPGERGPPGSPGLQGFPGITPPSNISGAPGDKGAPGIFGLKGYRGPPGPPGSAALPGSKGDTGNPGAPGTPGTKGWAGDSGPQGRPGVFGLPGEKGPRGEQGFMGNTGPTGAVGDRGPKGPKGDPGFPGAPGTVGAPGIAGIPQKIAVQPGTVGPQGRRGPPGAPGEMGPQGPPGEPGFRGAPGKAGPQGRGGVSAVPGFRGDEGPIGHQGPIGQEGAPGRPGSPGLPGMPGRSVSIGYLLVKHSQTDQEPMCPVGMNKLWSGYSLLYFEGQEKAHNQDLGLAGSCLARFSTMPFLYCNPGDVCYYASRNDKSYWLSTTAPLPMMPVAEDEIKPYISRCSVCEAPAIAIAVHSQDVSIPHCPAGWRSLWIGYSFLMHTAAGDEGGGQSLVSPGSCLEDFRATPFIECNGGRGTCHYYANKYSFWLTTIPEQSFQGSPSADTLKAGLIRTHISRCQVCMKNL
Sequence of type IV collagen (chain, as listed by the source, chain 2 of 2): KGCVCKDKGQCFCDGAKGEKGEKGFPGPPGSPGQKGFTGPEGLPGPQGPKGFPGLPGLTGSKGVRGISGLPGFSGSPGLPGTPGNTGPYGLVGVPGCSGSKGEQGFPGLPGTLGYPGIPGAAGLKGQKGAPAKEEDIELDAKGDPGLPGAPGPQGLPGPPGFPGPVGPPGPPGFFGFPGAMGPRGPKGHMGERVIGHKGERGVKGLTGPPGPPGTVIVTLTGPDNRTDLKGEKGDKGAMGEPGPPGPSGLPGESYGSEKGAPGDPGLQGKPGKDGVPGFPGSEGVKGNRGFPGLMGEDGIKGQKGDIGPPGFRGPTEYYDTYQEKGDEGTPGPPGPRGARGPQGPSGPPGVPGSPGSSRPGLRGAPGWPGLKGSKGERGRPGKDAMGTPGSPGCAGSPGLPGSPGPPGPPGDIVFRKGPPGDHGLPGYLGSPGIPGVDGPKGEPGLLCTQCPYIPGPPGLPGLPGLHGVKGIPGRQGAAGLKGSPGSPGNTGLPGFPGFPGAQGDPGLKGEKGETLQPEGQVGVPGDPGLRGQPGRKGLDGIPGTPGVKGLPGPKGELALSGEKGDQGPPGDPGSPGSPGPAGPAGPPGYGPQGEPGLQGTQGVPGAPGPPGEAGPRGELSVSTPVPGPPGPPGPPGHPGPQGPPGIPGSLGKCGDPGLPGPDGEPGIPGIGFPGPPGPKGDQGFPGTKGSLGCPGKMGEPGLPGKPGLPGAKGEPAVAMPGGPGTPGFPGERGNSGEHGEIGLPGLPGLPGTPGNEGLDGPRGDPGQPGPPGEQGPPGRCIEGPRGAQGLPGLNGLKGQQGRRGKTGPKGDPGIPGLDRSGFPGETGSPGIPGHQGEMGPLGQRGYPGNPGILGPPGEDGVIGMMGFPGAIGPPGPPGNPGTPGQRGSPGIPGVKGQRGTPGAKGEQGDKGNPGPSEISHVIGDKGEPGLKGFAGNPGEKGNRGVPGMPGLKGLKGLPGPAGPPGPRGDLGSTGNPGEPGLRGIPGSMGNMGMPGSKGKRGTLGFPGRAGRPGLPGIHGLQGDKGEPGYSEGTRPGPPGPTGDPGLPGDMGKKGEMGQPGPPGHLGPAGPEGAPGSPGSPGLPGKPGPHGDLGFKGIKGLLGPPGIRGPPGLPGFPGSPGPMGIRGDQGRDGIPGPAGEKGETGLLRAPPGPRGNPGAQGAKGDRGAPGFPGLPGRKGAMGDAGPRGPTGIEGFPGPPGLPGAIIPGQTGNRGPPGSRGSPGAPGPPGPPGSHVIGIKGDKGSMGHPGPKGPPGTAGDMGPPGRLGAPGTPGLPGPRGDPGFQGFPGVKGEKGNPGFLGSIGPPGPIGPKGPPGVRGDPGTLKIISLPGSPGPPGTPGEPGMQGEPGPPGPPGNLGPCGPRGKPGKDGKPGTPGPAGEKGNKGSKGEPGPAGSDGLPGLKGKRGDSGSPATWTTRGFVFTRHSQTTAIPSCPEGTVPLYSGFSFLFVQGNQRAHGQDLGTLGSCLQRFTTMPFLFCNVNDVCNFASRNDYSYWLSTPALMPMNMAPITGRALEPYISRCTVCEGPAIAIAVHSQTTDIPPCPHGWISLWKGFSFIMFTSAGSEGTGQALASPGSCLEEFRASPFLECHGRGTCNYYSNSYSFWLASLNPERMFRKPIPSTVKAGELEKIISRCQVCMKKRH

gelatinase B
Selectivity v. Coll-3, substrate 5 uM (Dnp-GPVNFRVC(Me)-NH2): 217 unitless | cleavage seen on a gel (biglycan): stromelysin 1 and gelatinase B being able to degrade this proteoglycan | cleavage seen on a gel (type IV collagen): Both collagenase 1 and gelatinase B processed type IV collagen under the conditions used in our experiments

human Collagenase-3
sensitivity for collagenase 3 against the consensus substrate FlSb1 [1]: 100-fold less sensitive for collagenase 3 compared to the consensus substrate | Specificity Constant (Dabcyl-GPHPFRGC(Flu)-NH2): 32700 1/sM | Specificity Constant, + Gel (Dabcyl-GPHPFRGC(Flu)-NH2): 26900 1/sM | Specificity Constant [2]: 4.4e+06 1/sM and 1.62e+06 1/sM | Specificity Constant, + Gel [2]: 1.74e+06 1/sM | Specificity Constant (Dabcyl-GPVNLHGC(Flu)-NH2): 421000 1/sM | Specificity Constant, 0.85 to 2.10 Hours, + 1.6 ug/ml TIICol (Dabcyl-GPVNLHGC(Flu)-NH2): 1.54e+06 1/sM | Specificity Constant, 0.85 to 2.10 Hours, + 4.9 ug/ml TIICol (Dabcyl-GPVNLHGC(Flu)-NH2): 1.88e+06 1/sM | Specificity Constant, 0.85 to 2.10 Hours, + 15 ug/ml TIICol (Dabcyl-GPVNLHGC(Flu)-NH2): 2.25e+06 1/sM | Specificity Constant, 0.85 to 2.10 Hours, + 44 ug/ml TIICol (Dabcyl-GPVNLHGC(Flu)-NH2): 2.55e+06 1/sM | Specificity Constant, 0.85 to 2.10 Hours, + .18 ug/ml TIICol (Dabcyl-GPVNLHGC(Flu)-NH2): 1.33e+06 1/sM | Specificity Constant, 0.85 to 2.10 Hours, + .55 ug/ml TIICol (Dabcyl-GPVNLHGC(Flu)-NH2): 1.47e+06 1/sM | Specificity Constant, 0.85 to 2.10 Hours, no TIICol (Dabcyl-GPVNLHGC(Flu)-NH2): 1.11e+06 1/sM | Specificity Constant, + Gel (Dabcyl-GPVNLHGC(Flu)-NH2): 471000 1/sM | Specificity Constant (kcat/Km) (Dnp-DEGPMGLKC(Me)YLG-NH2): 528000 1/sM | Specificity Constant (kcat/Km) (Dnp-GPAPFRGC(Me)-NH2): 1.14e+06 1/sM | Specificity Constant (kcat/Km) (Dnp-GPAPFRVC(Me)-NH2): 1.76e+06 1/sM | Specificity Constant (kcat/Km) (Dnp-GPAPLHGC(Me)-NH2): 1.69e+06 1/sM | Specificity Constant (kcat/Km) (Dnp-GPAPLHVC(Me)-NH2): 677000 1/sM | Specificity Constant (kcat/Km) (Dnp-GPFGLKG-NH2): 1.28e+06 1/sM | Specificity Constant (kcat/Km) (Dnp-GPHPFRG-NH2): 900000 1/sM | Specificity Constant (kcat/Km) (Dnp-GPHPMRG-NH2): 2.33e+06 1/sM | Specificity Constant (kcat/Km) (Dnp-GPINLHG-NH2): 700000 1/sM | Specificity Constant (kcat/Km) (Dnp-GPKGITS-NH2): 734000 1/sM | Specificity Constant (kcat/Km) (Dnp-GPKGMRG-NH2): 2.32e+06 1/sM | Specificity Constant (kcat/Km) (Dnp-GPLGFRGC(Me)-NH2): 2.4e+06 1/sM | Specificity Constant (kcat/Km) (Dnp-GPLGFRVC(Me)-NH2): 3.92e+06 1/sM | Specificity Constant (kcat/Km) (Dnp-GPLGLHGC(Me)-NH2): 3.73e+06 1/sM | Specificity Constant (kcat/Km) (Dnp-GPLGLHVC(Me)-NH2): 4.46e+06 1/sM | Specificity Constant (kcat/Km), + 1:1 Gelatin (Dnp-GPLGMRG-NH2): 340000 1/sM | Specificity Constant (kcat/Km), + 1:4 Gelatin (Dnp-GPLGMRG-NH2): 562000 1/sM | Specificity Constant (kcat/Km), + 1:16 Gelatin (Dnp-GPLGMRG-NH2): 1.93e+06 1/sM | Specificity Constant (kcat/Km), + 1:64 Gelatin (Dnp-GPLGMRG-NH2): 2.67e+06 1/sM | Specificity Constant (kcat/Km), + 1:256 Gelatin (Dnp-GPLGMRG-NH2): 4.65e+06 1/sM | Specificity Constant (kcat/Km), + H2O (Dnp-GPLGMRG-NH2): 3.16e+06 1/sM | Specificity Constant (kcat/Km) (Dnp-GPLPFHVC(Me)-NH2): 598000 1/sM | Specificity Constant (kcat/Km) (Dnp-GPLPFRGC(Me)-NH2): 973000 1/sM | Specificity Constant (kcat/Km) (Dnp-GPLPFRVC(Me)-NH2): 1.29e+06 1/sM | Specificity Constant (kcat/Km) (Dnp-GPLPLHGC(Me)-NH2): 1.1e+06 1/sM | Specificity Constant (kcat/Km) (Dnp-GPLQFRG-NH2): 705000 1/sM | Specificity Constant (kcat/Km) (Dnp-GPLQMRG-NH2): 885000 1/sM | Specificity Constant (kcat/Km) (Dnp-GPLSFQG-NH2): 454000 1/sM | Specificity Constant (kcat/Km) (Dnp-GPLSIQD-NH2): 868000 1/sM | Specificity Constant (kcat/Km) (Dnp-GPLSISG-NH2): 191000 1/sM | Specificity Constant (kcat/Km) (Dnp-GPMSYNG-NH2): 887000 1/sM | Specificity Constant (kcat/Km) (Dnp-GPRPFRG-NH2): 634000 1/sM | Specificity Constant (kcat/Km) (Dnp-GPSELKG-NH2): 862000 1/sM | Specificity Constant (kcat/Km) (Dnp-GPSGIHL-NH2): 284000 1/sM | Specificity Constant (kcat/Km) (Dnp-GPSGIHV-NH2): 1.41e+06 1/sM | Specificity Constant (kcat/Km) (Dnp-GPSPFHVC(Me)-NH2): 338000 1/sM | Specificity Constant (kcat/Km) (Dnp-GPSPFRGC(Me)-NH2): 1.3e+06 1/sM | Specificity Constant (kcat/Km) (Dnp-GPSPLHGC(Me)-NH2): 1.76e+06 1/sM | Specificity Constant (kcat/Km), substrate 5 uM (Dnp-GPVNFRVC(Me)-NH2): 2.57e+06 1/sM | Specificity Constant (kcat/Km) (Dnp-GPVNLHG-NH2): 1.15e+06 1/sM | Specificity Constant (kcat/Km) (Dnp-GPVNLHGC(Me)-NH2): 813000 1/sM | Specificity Constant (kcat/Km) (Dnp-GPVNLHGRC(Me)-NH2): 1.04e+06 1/sM | Specificity Constant (kcat/Km) (Dnp-GPYGMRA-NH2): 5.66e+06 1/sM | Specificity Constant (kcat/Km) (Dnp-PHPFRG-NH2): 230000 1/sM | Specificity Constant (kcat/Km) (Dnp-PINLHG-NH2): 377000 1/sM | Specificity Constant (kcat/Km) (Dnp-PLGMRG-NH2): 980000 1/sM | Specificity Constant (kcat/Km) (Dnp-PSGIHL-NH2): 91700 1/sM | Specificity Constant (kcat/Km) [3]: 1.54e+06 1/sM | Specificity Constant (kcat/Km) (Dnp-VTPYNMRG-NH2): 2.69e+06 1/sM | cleavage seen on a gel (biglycan): Cleavage of biglycan generated peptide fragments of 28, 17, 8, and 6 kDa | cleavage seen on a gel (type IV collagen): type IV collagen digestion gave 3-4 detectable cleavage products (85 kDa, 80 kDa, 35 kDa and 28 kDa

stromelysin 1
Selectivity v. Coll-3, substrate 5 uM (Dnp-GPVNFRVC(Me)-NH2): 400 unitless | cleavage seen on a gel (biglycan): stromelysin 1 and gelatinase B being able to degrade this proteoglycan
